Measured values: patent publication US20140309175A1

Molecular target: C1-Esterase (UniProt P09871)
Assay: cell-based or functional assay

Chain of C1-Esterase (P09871 16-688 limits assumed): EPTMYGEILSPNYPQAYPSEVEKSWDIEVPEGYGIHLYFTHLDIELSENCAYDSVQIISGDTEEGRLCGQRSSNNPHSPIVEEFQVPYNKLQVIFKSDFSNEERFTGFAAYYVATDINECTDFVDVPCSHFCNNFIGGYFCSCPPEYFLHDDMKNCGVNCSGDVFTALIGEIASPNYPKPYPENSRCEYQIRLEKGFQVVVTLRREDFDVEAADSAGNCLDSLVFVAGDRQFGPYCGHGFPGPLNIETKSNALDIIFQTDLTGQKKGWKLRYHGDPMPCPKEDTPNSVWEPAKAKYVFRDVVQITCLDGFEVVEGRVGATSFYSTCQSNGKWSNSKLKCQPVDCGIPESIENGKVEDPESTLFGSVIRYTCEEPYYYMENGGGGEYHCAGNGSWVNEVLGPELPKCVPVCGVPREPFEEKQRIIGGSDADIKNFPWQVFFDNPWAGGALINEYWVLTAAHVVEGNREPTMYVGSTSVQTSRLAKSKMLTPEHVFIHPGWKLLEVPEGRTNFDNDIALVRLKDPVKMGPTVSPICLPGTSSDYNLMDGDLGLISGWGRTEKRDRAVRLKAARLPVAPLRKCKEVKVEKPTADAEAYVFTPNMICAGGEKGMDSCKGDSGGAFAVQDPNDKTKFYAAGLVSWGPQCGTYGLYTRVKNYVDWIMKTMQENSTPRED

Mal-PEG-C1 INH (C1 esterase inhibitor PEGylated with 40 kDa maleimide mPEG) (from UniProt P05155 23-500)
in vitro C1 inhibitory activity: 6.1 U/mg
in vitro C1 inhibitory activity, percent of native C1 inhibitor: 86%

Mal-U-PEG-C1 INH (C1 inhibitor PEGylated with branched 40k mPEG-maleimide) (from UniProt P05155 23-500)
in vitro C1 inhibitory activity: 3.3 U/mg
in vitro C1 inhibitory activity, percent of native C1 inhibitor: 47%
